# From publication PMC6289849 (The Journal of steroid biochemistry and molecular biology, 2018)
# Read-outs that look alike come from different tables or passages of the source.
# Legend:
# [1] = target: zebrafish Sts (zfSts, zfSts_tv1) (Danio rerio, UniProt A0ACD6B647); experiment: HPLC of released estrone; type: biochemical; settings: 5 μM E1-sulfate, 28°C, 15 min, pH 7.0, 10 mM Ca2+; irreversible inhibitor
# human STS [2] = target: T1, human STS (Homo sapiens, UniProt P08842); settings: 5 μM E1-sulfate, 37°C, 15 min, pH 7.0, 10 mM Ca2+; irreversible inhibitor
# T1 sequence (P08842 22-583): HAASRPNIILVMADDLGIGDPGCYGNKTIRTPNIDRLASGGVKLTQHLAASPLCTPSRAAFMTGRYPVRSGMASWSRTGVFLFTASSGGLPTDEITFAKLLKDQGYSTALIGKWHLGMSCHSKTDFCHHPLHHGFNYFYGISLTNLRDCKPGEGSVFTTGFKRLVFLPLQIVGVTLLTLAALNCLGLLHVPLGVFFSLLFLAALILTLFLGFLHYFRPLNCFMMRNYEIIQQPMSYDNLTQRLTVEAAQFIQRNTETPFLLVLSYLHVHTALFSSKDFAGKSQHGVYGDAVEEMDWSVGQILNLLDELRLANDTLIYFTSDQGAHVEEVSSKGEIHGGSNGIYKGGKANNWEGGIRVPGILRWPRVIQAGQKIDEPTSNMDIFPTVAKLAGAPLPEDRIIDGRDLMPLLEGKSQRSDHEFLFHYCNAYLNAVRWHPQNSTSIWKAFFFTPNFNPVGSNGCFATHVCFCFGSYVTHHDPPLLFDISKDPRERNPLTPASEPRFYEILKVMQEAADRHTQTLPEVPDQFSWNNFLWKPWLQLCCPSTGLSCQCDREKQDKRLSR
# [3] = tested on: CC(=O)[C@H]1CC[C@H]2[C@@H]3CC=C4C[C@@H](OS(=O)(=O)O)CC[C@]4(C)[C@H]3CC[C@]12C; experiment: cells, lysate or membranes; settings: 28°C, pH 7.0 Hepes, 10 mM Ca2+, 1 mM DTT, labelled compound
# [4] = tested on: CC(C)CCC[C@@H](C)[C@H]1CC[C@H]2[C@@H]3CC=C4C[C@@H](OS(=O)(=O)O)CC[C@]4(C)[C@H]3CC[C@]12C; experiment: cells, lysate or membranes; settings: 28°C, pH 7.0 Hepes, 10 mM Ca2+, 1 mM DTT, labelled compound
# [5] = tested on: C[C@]12CC[C@@H]3c4ccc(OS(=O)(=O)O)cc4CC[C@H]3[C@@H]1CCC2=O; experiment: cells, lysate or membranes; settings: 28°C, pH 7.0 Hepes, 10 mM Ca2+, 1 mM DTT, labelled compound
# [6] = tested on: [H][C@@]12CC=C3C[C@@H](OS(=O)(=O)O)CC[C@]3(C)[C@@]1([H])CC[C@]1(C)C(=O)CC[C@@]21[H]; experiment: cells, lysate or membranes; settings: 28°C, pH 7.0 Hepes, 10 mM Ca2+, 1 mM DTT, labelled compound
# [7] = tested on: [H][C@@]12CCc3cc(OS(=O)(=O)O)ccc3[C@@]1([H])CC[C@]1(C)[C@@H](O)CC[C@@]21[H]; experiment: cells, lysate or membranes; settings: 28°C, pH 7.0 Hepes, 10 mM Ca2+, 1 mM DTT, labelled compound
# human STS [8] = target: T1, human STS; experiment: HPLC of released estrone; type: biochemical; settings: 5 μM E1-sulfate, 37°C, 15 min, pH 7.0, 10 mM Ca2+; irreversible inhibitor
# [9] = target: zebrafish Sts (zfSts, zfSts_tv1) (Danio rerio, UniProt A0ACD6B647, I88V/L437F/N388K); experiment: HPLC of released estrone; type: biochemical; settings: read-out: % inhibition at 0.1 μM
# Chain of zebrafish Sts (zfSts, zfSts_tv1) (Danio rerio, UniProt A0ACD6B647, I88V/L437F/N388K) (A0ACD6B647 21-584, stated change not applied): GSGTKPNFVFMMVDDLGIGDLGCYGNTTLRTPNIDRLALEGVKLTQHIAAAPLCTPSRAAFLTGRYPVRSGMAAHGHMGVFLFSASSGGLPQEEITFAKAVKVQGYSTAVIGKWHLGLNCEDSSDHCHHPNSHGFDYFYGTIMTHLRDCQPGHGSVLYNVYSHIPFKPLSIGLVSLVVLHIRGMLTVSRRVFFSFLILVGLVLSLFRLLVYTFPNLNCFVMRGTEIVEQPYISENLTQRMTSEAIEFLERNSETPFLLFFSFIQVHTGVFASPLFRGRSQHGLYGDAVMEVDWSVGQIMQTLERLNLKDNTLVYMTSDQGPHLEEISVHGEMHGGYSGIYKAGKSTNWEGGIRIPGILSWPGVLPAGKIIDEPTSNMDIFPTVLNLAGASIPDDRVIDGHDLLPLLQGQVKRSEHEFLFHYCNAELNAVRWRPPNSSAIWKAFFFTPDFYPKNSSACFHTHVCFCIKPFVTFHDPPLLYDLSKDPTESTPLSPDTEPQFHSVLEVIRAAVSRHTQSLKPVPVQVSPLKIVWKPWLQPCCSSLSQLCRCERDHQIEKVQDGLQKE
# Chain of zebrafish Sts (zfSts, zfSts_tv1) (Danio rerio, UniProt A0ACD6B647) (A0ACD6B647 21-584): as the sequence (A0ACD6B647 21-584, stated change not applied) above
molecule,measurement,setting,value
C[C@]12CC[C@@H]3c4ccc(OS(N)(=O)=O)cc4CC[C@H]3[C@@H]1CCC2=O [EMATE],% inhibition at 0.1 μM,[1],EMATE also inhibited the activity zebrafish Sts_tv1 and human STS
same,% inhibition at 0.1 μM,human STS [2],EMATE also inhibited the activity zebrafish Sts_tv1 and human STS
"zebrafish Sts (zfSts, zfSts_tv1) (Danio rerio; I88V/L437F/N388K)",Km,[3],0.18 ± 0.01 µM
same,Vmax,[3],0.000104 µmol/min/mg
same,Km,[4],0.62 ± 0.06 µM
same,Vmax,[4],8.12e-05 µmol/min/mg
same,Km,[5],4.32 ± 0.49 µM
same,Vmax,[5],0.00126 µmol/min/mg
same,Km,[6],19.38 ± 3.07 µM
same,Vmax,[6],0.000374 µmol/min/mg
same,Km,[7],2.07 ± 0.29 µM
same,Vmax,[7],0.00107 µmol/min/mg
NS(=O)(=O)Oc1ccc2c3c(c(=O)oc2c1)CCCCC3 [STX64],% inhibition at 0.1 μM,human STS [8],93%
same,inhibition at 0.1 µM,[9],88.3%
